Laboratory results reported in patent US20070276130A1 (CHILDREN S MEDICAL CENTER, published 2007).
Ends that are not written are not given here.

Columns and labels:
[1] = target: VP5CT of rhesus rotavirus (RRV) VP4 (rhesus rotavirus (RRV)) (UniProt P12473); assay: X-ray crystal structure
[2] = target: the molecule itself; assay: X-ray crystal structure
[3] = target: T1, DS-1 VP8* core with residues 60-64 mutated to SGSGG (human rotavirus strain DS-1, UniProt P11196 65-223 (Rotavirus A entry)); assay: two-dimensional 15N-1H HSQC NMR; no change in the chemical shifts of the 15N valines of the peptide
T1 construct: That conversion is mine; also called modified DS-1 VP8* core; unlabeled VP8* core
T1 chain: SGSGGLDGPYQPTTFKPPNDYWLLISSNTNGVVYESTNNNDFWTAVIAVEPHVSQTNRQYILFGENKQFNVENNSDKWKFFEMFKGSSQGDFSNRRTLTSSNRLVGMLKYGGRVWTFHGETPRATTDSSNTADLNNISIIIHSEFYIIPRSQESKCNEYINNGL

[4] = target: the molecule itself; assay: X-ray crystal structure (crystal packing)

For “VP5CT of rhesus rotavirus (RRV) VP4 (from UniProt P12473 248-525)”, the share of the surface area of each subunit buried by trimer contacts [1] was 25.8% and the surface area of each subunit buried by trimer contacts [1] was 3960 Å2.

B1: RRV VP5* antigen domain (residues 247-479 of rhesus rotavirus VP4) (other)
chain: RAQANEDIVVSKTSLWKEMQYNRDITIRFKFASSIVKSGGLGYKWSEISFKPANYQYTYTRDGEEVTAHTTCSVNGMNDFNFNGGSLPTDFVISRYEVIKENSYVYVDYWDDSQAFRNMVYVRSLAANLNSVICTGGDYSFALPVGQWPVMTGGAVSLHSAGVTLSTQFTDFVSLNSLRFRFRLTVEEPSFSITRTRVSRLYGLPAANPNNGKEYYEVAGRFSLISLVPSNDD
notes: Expressed in Sf-9 cells from a baculovirus with an N-terminal histidine tag and a thrombin site; It crystallised both as a trimer and as a dimer, so copies is left open; also called VP5Ag; VP5* antigen (R247-D479)
B1: binds [2].

B2: peptide TVEPVS (DS-1 VP4 residues 60-64 plus a C-terminal serine) (peptide)
peptide: TVEPVS
modifications: also: 15N-labelled on valine, position not given here
notes: also called leader peptide; assayed peptide
B2: no binding [3].

B3: DS-1 VP8* core (residues 60-223 of DS-1 VP4) (other)
chain: TVEPVLDGPYQPTTFKPPNDYWLLISSNTNGVVYESTNNNDFWTAVIAVEPHVSQTNRQYILFGENKQFNVENNSDKWKFFEMFKGSSQGDFSNRRTLTSSNRLVGMLKYGGRVWTFHGETPRATTDSSNTADLNNISIIIHSEFYIIPRSQESKCNEYINNGL
notes: There are eight molecules in the asymmetric unit of the P1 crystal
B3: binds [4].
